The results in this text go back to US20030228309A1 (published 2003).

Usually IC50 stands for the concentration at which inhibition is half-maximal. A high value points to weaker potency in that assay.

For assay [1], the target named is T1, Biotinylated TRAIL (AM100200-Peprotech) (Homo sapiens (Human), UniProt P50591 114-281, biotinylated (sites not given)). Briefly: competition ELISA, soluble TR4 (TR4-Fc positive control) competes with plate-captured TR4-Fc for biotinylated TRAIL; assay 2. The protocol: (§1) Goat anti-human Fc was diluted to 0.1 micrograms/ml in coating buffer. The Immulon 4 microplate was coated with 100 microliters per well of the Goat anti-human Fc solution and incubated overnight at 4° C. The coating solution was decanted from the plate, and blocking solution was dispensed at 200 microliters per well. The plate was incubated at room temperature for 1 hour. After the 1 hour incubation period, the blocking solution was decanted from the plate and 1 microgram/mL of TR4-Fc was dispensed at 100 microliters/well and incubated for 2 hours at room temperature. After the incubation, the plate was washed five times manually using a Wheaton manifold.
T1 sequence (P50591 114-281 limits assumed): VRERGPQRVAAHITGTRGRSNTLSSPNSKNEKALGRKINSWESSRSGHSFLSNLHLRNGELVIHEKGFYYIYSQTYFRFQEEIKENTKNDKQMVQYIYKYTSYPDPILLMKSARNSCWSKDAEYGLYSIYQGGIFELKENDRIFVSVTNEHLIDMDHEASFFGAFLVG
(§2) Hybridoma supernatants were (previously) prepared in a low binding dilution plate using diluent. The supernatants were prepared in duplicate and were diluted from the stock concentration with 2.5 fold dilutions for the 7 subsequent wells. If a purified form of the antibody was available, the starting concentration was 5 micrograms/mL. The positive control (TR4-Fc) was diluted from 5 micrograms/mL. 100 microliters was transferred into the ELISA plate and pre-incubated for 30 minutes at room temperature. 20 microliters of biotinylated TRAIL was added at 5 micrograms/mL to the 100 gL of the supernatant and mixed. The combined 120 microliters incubated for 2 hours at RT. […]

The target of assay [2] is T1, Biotinylated TRAIL (AM100200-Peprotech). Kind of assay: competition ELISA, soluble TR4 (TR4-Fc positive control) competes with plate-captured TR4-Fc for biotinylated TRAIL; assay 1. The method, then:
as §1, §2
(In an ELISA, binding on a coated surface is turned into a signal by an enzyme label.)

B1: TR4-Fc fusion protein (Fc fusion)
chain: ATIKLHDQSIGTQQWEHSPLGELCPPGSHRSERPGACNRCTEGVGYTNASNNLFACLPCTACKSDEEERSPCTTTRNTACQCKPGTFRNDNSAEMCRKCSTGCPRGMVKVKDCTPWSDIECVHKESGNGHNI
notes: also called TR4 (in the form of Fc fusion protein); not shown: Fc region
Take B1: the IC50 worked out at 0.284 µg/mL in assay [1] and 0.491 µg/mL in assay [2].
